Results published in patent US20140086835A1 (UNIVERSITY OF NORTH CAROLINA AT CHAPEL HILL, published 2014).

Biological target: T1, recombinant human PSMA (extracellular domain) (human, UniProt Q04609 44-750)
T1 construct: extracellular domain; Bought (R&D Systems); Amine-coupled to a CM5 chip; also called prostate specific membrane antigen
Assay: SPR (BIAcore 2000), PSMA on CM5 chip, 1:1 Langmuir fit

T1 sequence (Q04609 44-750): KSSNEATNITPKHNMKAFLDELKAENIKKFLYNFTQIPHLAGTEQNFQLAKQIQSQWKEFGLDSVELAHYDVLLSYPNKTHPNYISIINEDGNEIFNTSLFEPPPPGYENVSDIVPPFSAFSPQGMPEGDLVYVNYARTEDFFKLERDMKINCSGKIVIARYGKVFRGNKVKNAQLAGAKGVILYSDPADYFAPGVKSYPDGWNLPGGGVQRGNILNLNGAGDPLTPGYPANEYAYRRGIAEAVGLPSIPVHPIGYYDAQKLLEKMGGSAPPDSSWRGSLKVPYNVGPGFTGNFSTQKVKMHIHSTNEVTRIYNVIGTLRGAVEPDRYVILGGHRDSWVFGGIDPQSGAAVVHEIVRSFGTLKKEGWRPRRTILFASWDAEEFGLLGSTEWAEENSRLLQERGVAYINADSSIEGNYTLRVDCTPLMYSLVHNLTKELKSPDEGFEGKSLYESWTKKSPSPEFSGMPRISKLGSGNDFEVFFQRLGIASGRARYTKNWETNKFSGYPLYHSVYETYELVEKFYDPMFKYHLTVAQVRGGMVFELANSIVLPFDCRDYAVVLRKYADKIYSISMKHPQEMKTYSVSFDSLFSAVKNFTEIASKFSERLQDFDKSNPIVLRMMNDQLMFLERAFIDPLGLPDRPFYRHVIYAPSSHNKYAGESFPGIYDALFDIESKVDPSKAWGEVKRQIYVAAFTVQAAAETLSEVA

B1: heptameric PSMA-binding peptide targeting ligand (designed binder)
chain: MWQPDTAHHWATLGPQPQPKPQPKPEPEPQPQGGMPPRPLDVLNRSLKSPVIVRLKGGREFRGTLDGYDIHMNLVLLDAEEIQNGEVVRKVGSVVIRGDTVVFVSPAPGGEHHHHHH
notes: Self-assembled homoheptamer; also called PSMA-Heptamer; P^PSMA heptamer
Kd: 20 nM
koff: 1.09e-06 s⁻¹
